Source: the Human Domainome abundance scans (Beltran et al. 2025)
± gives the uncertainty stated by the source.

B1: Zinc finger homeobox protein 4, residues 2086 to 2141; numbered along this chain, Q86UP3 (parent)
chain: RPRTRITDDQLKILRAYFDINNSPSEEQIQEMAEKSGLSQKVIKHWFRNTLFKERQ

Variants of: B1
Assay: abundance fitness (aPCA) (normalised: wild type 0, dead -1); higher = more abundant; growth selection in yeast, the domain comes from the species named
Conditions: Homo sapiens

Variant | abundance fitness
RPRTRITDDQLKILRAYFDINNSPSEEQINEMAEKSGLSQKVIKHWFRNTLFKERQ | -0.08 ± 0.26
RPRTRITDDQLKILRAYFDINNSPSEEQIHEMAEKSGLSQKVIKHWFRNTLFKERQ | -0.072 ± 0.17
RPRTRITDDQLKILRAYFDINNSPSEEQIDEMAEKSGLSQKVIKHWFRNTLFKERQ | -0.495 ± 0.23
RPRTRITDDQLKILRAYFDINNSPSEEQISEMAEKSGLSQKVIKHWFRNTLFKERQ | -0.159 ± 0.1
RPRTRITDDQLKILRAYFDINNSPSEEQIFEMAEKSGLSQKVIKHWFRNTLFKERQ | -0.441 ± 0.24
RPRTRITDDQLKILRAYFDINNSPSEEQIEEMAEKSGLSQKVIKHWFRNTLFKERQ | -0.154 ± 0.1
RPRTRITDDQLKILRAYFDINNSPSEEQILEMAEKSGLSQKVIKHWFRNTLFKERQ | 0.031 ± 0.088
RPRTRITDDQLKILRAYFDINNSPSEEQITEMAEKSGLSQKVIKHWFRNTLFKERQ | -0.025 ± 0.097
RPRTRITDDQLKILRAYFDINNSPSEEQIIEMAEKSGLSQKVIKHWFRNTLFKERQ | 0.196 ± 0.24
RPRTRITDDQLKILRAYFDINNSPSEEQIWEMAEKSGLSQKVIKHWFRNTLFKERQ | -0.349 ± 0.098
RPRTRITDDQLKILRAYFDINNSPSEEQIGEMAEKSGLSQKVIKHWFRNTLFKERQ | -0.116 ± 0.079
RPRTRITDDQLKILRAYFDINNSPSEEQIKEMAEKSGLSQKVIKHWFRNTLFKERQ | 0.146 ± 0.13
RPRTRITDDQLKILRAYFDINNSPSEEQIQVMAEKSGLSQKVIKHWFRNTLFKERQ | -0.031 ± 0.075
RPRTRITDDQLKILRAYFDINNSPSEEQIQDMAEKSGLSQKVIKHWFRNTLFKERQ | -0.07 ± 0.1
RPRTRITDDQLKILRAYFDINNSPSEEQIQGMAEKSGLSQKVIKHWFRNTLFKERQ | -0.106 ± 0.07
RPRTRITDDQLKILRAYFDINNSPSEEQIQWMAEKSGLSQKVIKHWFRNTLFKERQ | -0.26 ± 0.086
RPRTRITDDQLKILRAYFDINNSPSEEQIQPMAEKSGLSQKVIKHWFRNTLFKERQ | -0.316 ± 0.11
RPRTRITDDQLKILRAYFDINNSPSEEQIQCMAEKSGLSQKVIKHWFRNTLFKERQ | -0.141 ± 0.099
RPRTRITDDQLKILRAYFDINNSPSEEQIQYMAEKSGLSQKVIKHWFRNTLFKERQ | -0.162 ± 0.14
RPRTRITDDQLKILRAYFDINNSPSEEQIQAMAEKSGLSQKVIKHWFRNTLFKERQ | -0.104 ± 0.087
RPRTRITDDQLKILRAYFDINNSPSEEQIQHMAEKSGLSQKVIKHWFRNTLFKERQ | -0.109 ± 0.14
RPRTRITDDQLKILRAYFDINNSPSEEQIQIMAEKSGLSQKVIKHWFRNTLFKERQ | -0.09 ± 0.13
RPRTRITDDQLKILRAYFDINNSPSEEQIQNMAEKSGLSQKVIKHWFRNTLFKERQ | 0.011 ± 0.15
RPRTRITDDQLKILRAYFDINNSPSEEQIQRMAEKSGLSQKVIKHWFRNTLFKERQ | -0.007 ± 0.07

Variant | abundance fitness
RPRTRITDDQLKILRAYFDINNSPSEEQIQFMAEKSGLSQKVIKHWFRNTLFKERQ | -0.191 ± 0.11
RPRTRITDDQLKILRAYFDINNSPSEEQIQQMAEKSGLSQKVIKHWFRNTLFKERQ | -0.005 ± 0.14
RPRTRITDDQLKILRAYFDINNSPSEEQIQKMAEKSGLSQKVIKHWFRNTLFKERQ | 0.108 ± 0.12
RPRTRITDDQLKILRAYFDINNSPSEEQIQSMAEKSGLSQKVIKHWFRNTLFKERQ | -0.074 ± 0.074
RPRTRITDDQLKILRAYFDINNSPSEEQIQLMAEKSGLSQKVIKHWFRNTLFKERQ | -0.089 ± 0.076
RPRTRITDDQLKILRAYFDINNSPSEEQIQTMAEKSGLSQKVIKHWFRNTLFKERQ | -0.182 ± 0.12
RPRTRITDDQLKILRAYFDINNSPSEEQIQEWAEKSGLSQKVIKHWFRNTLFKERQ | -0.511 ± 0.083
RPRTRITDDQLKILRAYFDINNSPSEEQIQETAEKSGLSQKVIKHWFRNTLFKERQ | -0.706 ± 0.14
RPRTRITDDQLKILRAYFDINNSPSEEQIQESAEKSGLSQKVIKHWFRNTLFKERQ | -0.564 ± 0.08
RPRTRITDDQLKILRAYFDINNSPSEEQIQENAEKSGLSQKVIKHWFRNTLFKERQ | -1 ± 0.2
RPRTRITDDQLKILRAYFDINNSPSEEQIQEQAEKSGLSQKVIKHWFRNTLFKERQ | -0.837 ± 0.14
RPRTRITDDQLKILRAYFDINNSPSEEQIQEKAEKSGLSQKVIKHWFRNTLFKERQ | -0.923 ± 0.13
RPRTRITDDQLKILRAYFDINNSPSEEQIQERAEKSGLSQKVIKHWFRNTLFKERQ | -0.911 ± 0.07
RPRTRITDDQLKILRAYFDINNSPSEEQIQECAEKSGLSQKVIKHWFRNTLFKERQ | -0.154 ± 0.084
RPRTRITDDQLKILRAYFDINNSPSEEQIQEFAEKSGLSQKVIKHWFRNTLFKERQ | -0.547 ± 0.14
RPRTRITDDQLKILRAYFDINNSPSEEQIQEGAEKSGLSQKVIKHWFRNTLFKERQ | -0.672 ± 0.07
RPRTRITDDQLKILRAYFDINNSPSEEQIQEIAEKSGLSQKVIKHWFRNTLFKERQ | -0.244 ± 0.12
RPRTRITDDQLKILRAYFDINNSPSEEQIQEAAEKSGLSQKVIKHWFRNTLFKERQ | -0.55 ± 0.11
RPRTRITDDQLKILRAYFDINNSPSEEQIQEDAEKSGLSQKVIKHWFRNTLFKERQ | -1.37 ± 0.26
RPRTRITDDQLKILRAYFDINNSPSEEQIQEPAEKSGLSQKVIKHWFRNTLFKERQ | -1.2 ± 0.24
RPRTRITDDQLKILRAYFDINNSPSEEQIQEEAEKSGLSQKVIKHWFRNTLFKERQ | -1.01 ± 0.15
RPRTRITDDQLKILRAYFDINNSPSEEQIQEVAEKSGLSQKVIKHWFRNTLFKERQ | -0.276 ± 0.084
RPRTRITDDQLKILRAYFDINNSPSEEQIQEHAEKSGLSQKVIKHWFRNTLFKERQ | -0.686 ± 0.14
